This is an account of results in publication PMC7868722.

To fix the notation:
B1: 12G (structured_DNA)
DNA: GGTTGGTGTGGTTGG
modifications: T12: N3-propargyl-dT clicked to 1-beta-D-glucopyranosyl azide (printed glycopyranosyl)
B2: 3G (structured_DNA)
DNA: GGTTGGTGTGGTTGG
modifications: T3: N3-propargyl-dT clicked to 1-beta-D-glucopyranosyl azide (printed glycopyranosyl)

For this data set, the target named is human alpha-thrombin (plasma) (Homo sapiens, UniProt P00734;P00734 328-363;364-622). Nature of the data set: MST.
One may read the Kd as the constant that tells how readily two partners part at equilibrium. In the case of B1, the Kd came to 20.7 ± 2.8 nM. With GGTTGGTGTGGTTGG (structured_DNA, T3: N3-aminoalkyl-dT p-nitrobenzoyl amide) [3NB] the figure was 164 ± 3.5 nM; with GGTTGGTGTGGTTGG (structured_DNA, T12: N3-carboxymethyl-dT amide with L-tryptophan) [12Trp], 67.3 ± 12.1 nM; with GGTTGGTGTGGTTGG (structured_DNA, T3: N3-propargyl-dT clicked to 1-beta-D-lactopyranosyl azide) [3L], 11.6 ± 0.5 nM. In turn, GGTTGGTGTGGTTGG (structured_DNA, T3: N3-carboxymethyl-dT amide) [3Amide] registered an equilibrium dissociation constant (Kd) of 29.2 ± 0.4 nM. With GGTTGGTGTGGTTGG (structured_DNA, T3: N3-carboxymethyl-dT amide with L-leucine) [3Leu] the figure was 10.9 ± 0.2 nM; with GGTTGGTGTGGTTGG (structured_DNA, T12: N3-carboxymethyl-dT amide with L-serine) [12Ser], 86.6 ± 4.5 nM; with GGTTGGTGTGGTTGG (structured_DNA, T12: N3-carboxymethyl-dT amide with L-alanine) [12Ala], 51 ± 3.8 nM.

Take GGTTGGTGTGGTTGG (structured_DNA, T3: N3-aminoalkyl-dT benzoyl amide) [3Bz]: binding was put at a Kd of 30 ± 6.6 nM. In turn, GGTTGGTGTGGTTGG (structured_DNA, T3: N3-carboxymethyl-dT amide with L-alanine) [3Ala] had an equilibrium dissociation constant (Kd) of 21.4 ± 2.8 nM. The molecule GGTTGGTGTGGTTGG (structured_DNA, T12: N3-propargyl-dT clicked to 1-beta-D-lactopyranosyl azide) [12L] registered an equilibrium dissociation constant (Kd) of 27.2 ± 3 nM.

Turning to GGTTGGTGTGGTTGG (structured_DNA, T12: N3-carboxymethyl-dT amide with L-phenylalanine) [12Phe], binding was characterised by a dissociation constant (Kd) of 99.1 ± 6.3 nM.

Turning to GGTTGGTGTGGTTGG (structured_DNA) [TBA (HD1)], the Kd was found to be 20.2 ± 1.3 nM. GGTTGGTGTGGTTGG (structured_DNA, T12: N3-carboxymethyl-dT amide) [12Amide]: the equilibrium dissociation constant (Kd) turned out to be 30.6 ± 6.1 nM. This Kd lies about 1.5-fold higher than the previous one. GGTTGGTGTGGTTGG (structured_DNA, T12: N3-carboxymethyl-dT amide with L-leucine) [12Leu] had a dissociation constant (Kd) of 72.2 ± 0.9 nM.

Turning to B2, binding was characterised by a dissociation constant (Kd) of 9.8 ± 0.6 nM. GGTTGGTGTGGTTGG (structured_DNA, T3: N3-carboxymethyl-dT amide with L-phenylalanine) [3Phe] returned a Kd of 22.6 ± 4.8 nM. Consider GGTTGGTGTGGTTGG (structured_DNA, T3: N3-aminoalkyl-dT nicotinoyl amide) [3Nic], for which binding was characterised by a dissociation constant (Kd) of 27.1 ± 4.2 nM. For GGTTGGTGTGGTTGG (structured_DNA, T3: N3-carboxymethyl-dT amide with L-serine) [3Ser] the value was 14.6 ± 0.3 nM.
